Drawing on patent US20160031999A1 (CSL, published 2016), this text covers Kd for 2 molecules.

Substitutions are numbered along the chain they refer to.

The target of assay [1] is T1, polypeptide of SEQ ID NO: 85 (amino acids 23 to 318 of human IL-11Rα, serine at position 248, 8×HIS tag) (human, UniProt Q14626 23-318).
T1 construct: also called WT D1/2; truncated hIL-11R
T1 sequence: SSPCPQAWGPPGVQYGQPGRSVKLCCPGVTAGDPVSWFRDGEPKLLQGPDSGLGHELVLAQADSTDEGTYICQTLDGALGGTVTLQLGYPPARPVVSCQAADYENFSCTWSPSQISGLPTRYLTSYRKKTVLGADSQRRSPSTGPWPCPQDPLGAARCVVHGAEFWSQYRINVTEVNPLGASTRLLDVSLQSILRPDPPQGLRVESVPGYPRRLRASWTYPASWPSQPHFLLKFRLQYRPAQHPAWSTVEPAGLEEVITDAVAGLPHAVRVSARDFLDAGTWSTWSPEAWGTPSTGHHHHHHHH
The assay can be described thus: Biacore, antibody captured on anti-human IgG Fc, receptor injected; mean ± SE. The protocol: (§1) Various point mutants of soluble forms of IL-11R were produced in which amino acids from mIL-11 were introduced into a soluble form of hIL-11 (SEQ ID NO: 85) (see Table 5 for positions of mutations relative to SEQ ID NO: 1 and for reference to the SEQ ID NO: of each polypeptide) and the binding of antibodies to those polypeptides or to polypeptides of SEQ ID NO: 3 or SEQ ID NO: 85 was determined using Biacore analysis or FACS.
(§2) Anti human IgG Fc specific antibody was chemically immobilized on a CM5 chip to ˜9000 RU. Antibodies were captured at about 0.3-1 μg/ml for 120 seconds on 2 spots in each flow cell. Adjacent spots consisting of only anti human IgG were used as a reference. IL-11 receptors were injected over the captured antibodies and reference spots at 40, 10, 5 and 2.5 nM in duplicate. Blank injections of buffer only were also performed in duplicate. Injection was performed for 3 minutes and dissociation monitored for a further 5 minutes.
Background: In SPR one partner is held on a chip, and binding of the other changes the refractive index at the surface.

In assay [2] the target is T2, polypeptide of SEQ ID NO: 3 (amino acids 23 to 363 of human IL-11Rα, serine at position 248, 8×HIS tag) (human, UniProt Q14626 23-363).
T2 construct: also called WT F/L
T2 sequence: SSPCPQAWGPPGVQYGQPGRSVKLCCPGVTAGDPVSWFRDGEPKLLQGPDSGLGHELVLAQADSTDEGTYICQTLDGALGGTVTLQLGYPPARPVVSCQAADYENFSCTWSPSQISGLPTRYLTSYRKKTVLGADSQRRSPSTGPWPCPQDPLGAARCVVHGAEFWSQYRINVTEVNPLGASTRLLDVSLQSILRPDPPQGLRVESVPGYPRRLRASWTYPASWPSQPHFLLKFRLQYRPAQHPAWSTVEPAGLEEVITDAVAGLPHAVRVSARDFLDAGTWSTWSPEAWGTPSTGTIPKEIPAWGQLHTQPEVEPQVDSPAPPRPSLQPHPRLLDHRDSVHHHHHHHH
The assay can be described thus: Biacore, antibody captured on anti-human IgG Fc, receptor injected; mean ± SE, N = 3. The protocol: as §1, §2

For assay [3], the target named is T3, K66R mutant of soluble human IL-11Rα (SEQ ID NO: 96) (human, UniProt Q14626 23-318).
T3 construct: also called K44R
T3 sequence: T1 sequence with K44R, S226C
The assay can be described thus: Biacore, antibody captured on anti-human IgG Fc, receptor injected; mean ± SE, N = 4. The protocol: as §1, §2

Assay [4] has as its target T4, P65S mutant of soluble human IL-11Rα (SEQ ID NO: 97) (human, UniProt Q14626 23-318).
T4 sequence: T1 sequence with P43S, S226C
The description is as above. As to the method:
as §1, §2

Assay [5] concerns the target T5, L101S mutant of soluble human IL-11Rα (SEQ ID NO: 98) (human, UniProt Q14626 23-318).
T5 sequence: T1 sequence with L79S, S226C
The description is as above. The protocol: as §1, §2

Assay [6] deals with T6, A178S mutant of soluble human IL-11Rα (SEQ ID NO: 99) (human, UniProt Q14626 23-318).
T6 sequence: T1 sequence with A156S, S226C
The description is as above. The protocol: as §1, §2

B1: antibody 8E4 (antibody, human IgG4 S228P, lambda, V domains shown)
VH: EVQLLESGGGLVQPGGSLRLSCAASGFTFSWYFMGWVRQAPGKGLEWVSYIYPSGGSTGYADSVKGRFTISRDNSKNTLYLQMHSLRAEDTAVYYCARDEGYCSSTSCYFDAFDIWGQGTMVTVSS
VL: QSALTQPPSASGSPGQSVAISCTGTSSDVGGYNFVSWYQQHPGKAPKLLIYEVTKRPSGVPDRFSGSKAGNTASLTVSGLQAEDEADYYCSSYGGSNNAGVFGTGTKVTVLG
By Kd is commonly meant the free concentration of one partner at which half of the binding sites on the other are occupied at equilibrium, for simple one-to-one binding. B1: the Kd came to 2.78 nM in assay [1]; 4 nM in assay [2]; 5.6 nM in assay [3]; 2.71 nM in assay [4]; 2.98 nM in assay [5]; 2.63 nM in assay [6].

B2: antibody 8D10 (antibody, human IgG4 S228P, kappa, V domains shown)
VH: EVQLLESGGGLVQPGGSLRLSCAASGFTFSRYMMGWVRQAPGKGLEWVSSIVPSGGITIYADSVKGRFTISRDNSKNTLYLQMNSLRAEDTAVYYCARDHMGIVATDWGQGTLVTVSS
VL: DIQMTQSPSSLSASVGDRVTITCQASQDITNYLNWYLHKPGKAPKLLIYDASNLQTGVPSRFSGSGSGTDFTFTITSLQPEDFGTYYCQQYDTLHPSFGPGTTVDIKR
Consider B2, for which the Kd in assay [1] turned out to be 0.58 nM; in assay [2], 1 nM; in assay [3], 1.3 nM; in assay [4], 0.67 nM; in assay [5], 0.7 nM; in assay [6], 0.6 nM.
